Experiment: not given
Details: not given
Method: The aminoethanol-diclofenac-introduced sodium hyaluronate prepared in Reference Examples 1 and 2 were tested by the same procedure.

Row | Substance | solubility in distilled water (appearance of the solution)
1 | aminoethanol-diclofenac-introduced sodium hyaluronate [Example 3] | homogeneously dissolved in distilled water and yielded clear and viscous aqueous solutions
2 | aminoethanol-diclofenac-introduced sodium hyaluronate [Example 2] | homogeneously dissolved in distilled water and yielded clear and viscous aqueous solutions
3 | aminoethanol-diclofenac-introduced sodium hyaluronate [Reference Example 2] | homogeneously dissolved in distilled water and yielded clear and viscous aqueous solutions
4 | aminoethanol-diclofenac-introduced sodium hyaluronate [Reference Example 1] | not dissolved in distilled water but yielded a white suspension

Experiment: Test Example 2: passage of 1.0% (w/v) aqueous solution through 0.22 μm porous filter
Format: physicochemical
Details: Millex-GV 0.22 μm pore diameter, room temperature, absorbance before and after filter passage
Method: Each of the aqueous solutions (test solutions) was injected into a rear portion of a syringe (1 mL in volume: manufactured by TERUMO Corporation) equipped with a porous filter (Millex-GV of 0.22 μm pore diameter: manufactured by Millipore Corporation) and was pressed out with a piston at room temperature to pass through the porous filter.
The diclofenac-based absorbance (peak top) at about 280 nm was measured for each of the test solutions before, and after the filter passage of at least 0.5 mL. The filter passage coefficient of each test solution was expressed by a concentration of the diclofenac content in the test solution before and after the filter passage that was calculated from the change in measured absorbance.

Row | Substance | filter passage coefficient
5 | aminoethanol-diclofenac-introduced sodium hyaluronate [Example 1] | 95.3%
6 | aminoethanol-diclofenac-introduced sodium hyaluronate [Reference Example 4] | 11.0%
7 | aminoethanol-diclofenac-introduced sodium hyaluronate [Reference Example 3] | 96.9%
